Laboratory results from publication PMC8323898, “Examination of the roles of a conserved motif in the PriA helicase in structure-specific DNA unwinding and processivity”.

Tests used:
PriA Trp186Ala [1] = molecular target: T1, PriA Trp186Ala (Escherichia coli, UniProt P17888 1-732, W186A); assay: EMSA; same as wild type; 5 mM EDTA; EMSA: 0.1-10 nM PriA, 1 nM fork, 50 mM Tris-HCl pH 8.0, 0.1 mg/mL BSA, 2 mM DTT, 5 mM EDTA, 6% glycerol, 30 min on ice, 4% PAGE; settings: protein: recombinant; tags: His-tag; label: radiolabel; fork 1:2, 60 bp parental duplex, two 38-nt ssDNA arms
PriA Arg187Ala [2] = molecular target: T2, PriA Arg187Ala (Escherichia coli, UniProt P17888 1-732, R187A); assay: as above; settings: protein: recombinant; tags: His-tag; label: radiolabel; fork 1:2, 60 bp parental duplex, two 38-nt ssDNA arms
PriA triple variant [3] = molecular target: T3, PriA triple variant (Escherichia coli, UniProt P17888 1-732, W186A;R187A;Y190A); assay: as above; settings: protein: recombinant; tags: His-tag; label: radiolabel; fork 1:2, 60 bp parental duplex, two 38-nt ssDNA arms
PriA Tyr190Ala [4] = molecular target: T4, PriA Tyr190Ala (Escherichia coli, UniProt P17888 1-732, Y190A); assay: as above; settings: protein: recombinant; tags: His-tag; label: radiolabel; fork 1:2, 60 bp parental duplex, two 38-nt ssDNA arms
PriA wild-type [5] = molecular target: T5, PriA wild-type (Escherichia coli, UniProt P17888 1-732); assay: EMSA; three shifted bands; 5 mM EDTA; EMSA: 0.1-10 nM PriA, 1 nM fork, 50 mM Tris-HCl pH 8.0, 0.1 mg/mL BSA, 2 mM DTT, 5 mM EDTA, 6% glycerol, 30 min on ice, 4% PAGE; settings: protein: recombinant; tags: N-terminal His6; label: radiolabel; fork 1:2, 60 bp parental duplex, two 38-nt ssDNA arms
PriA Trp186Ala [6] = molecular target: T1, PriA Trp186Ala; assay: EMSA; similar to wild type; 5 mM EDTA; EMSA: 0.1-10 nM PriA, 1 nM fork, 50 mM Tris-HCl pH 8.0, 0.1 mg/mL BSA, 2 mM DTT, 5 mM EDTA, 6% glycerol, 30 min on ice, 4% PAGE; settings: protein: recombinant; tags: His-tag; label: radiolabel; fork 1:2 (60 bp) 2:3 (33 bp nascent lagging) 1:4 (38 bp nascent leading), 5-nt lagging gap
PriA Arg187Ala [7] = molecular target: T2, PriA Arg187Ala; assay: as above; settings: protein: recombinant; tags: His-tag; label: radiolabel; fork 1:2 (60 bp) 2:3 (33 bp nascent lagging) 1:4 (38 bp nascent leading), 5-nt lagging gap
PriA triple variant [8] = molecular target: T3, PriA triple variant; assay: as above; settings: protein: recombinant; tags: His-tag; label: radiolabel; fork 1:2 (60 bp) 2:3 (33 bp nascent lagging) 1:4 (38 bp nascent leading), 5-nt lagging gap
PriA Tyr190Ala [9] = molecular target: T4, PriA Tyr190Ala; assay: as above; settings: protein: recombinant; tags: His-tag; label: radiolabel; fork 1:2 (60 bp) 2:3 (33 bp nascent lagging) 1:4 (38 bp nascent leading), 5-nt lagging gap
PriA wild-type [10] = molecular target: T5, PriA wild-type; assay: EMSA; one dominant shifted species; 5 mM EDTA; EMSA: 0.1-10 nM PriA, 1 nM fork, 50 mM Tris-HCl pH 8.0, 0.1 mg/mL BSA, 2 mM DTT, 5 mM EDTA, 6% glycerol, 30 min on ice, 4% PAGE; settings: protein: recombinant; tags: N-terminal His6; label: radiolabel; fork 1:2 (60 bp) 2:3 (33 bp nascent lagging) 1:4 (38 bp nascent leading), 5-nt lagging gap

Measured: binding result

B1: two-stranded fork (1b-98/3L-98) (mixed)
DNA 1: GCAAGCCTTCTACAGGTCGACCGTCCATGGCGACTCGAGACCGCAATACGGATAAGGGCTGAGCACGCCGACGAACATTCACCACGCCAGACCACGTA
DNA 2: GACTATCTACGTCCGAGGCTCGCGCCGCAGACTCATTTAGCCCTTATCCGTATTGCGGTCTCGAGTCGCCATGGACGGTCGACCTGTAGAAGGCTTGC
binds: PriA Trp186Ala [1] | PriA Arg187Ala [2] | PriA triple variant [3] | PriA Tyr190Ala [4] | PriA wild-type [5]

B2: four-stranded fork (1b-98/3L-98/b-33/11b-38) (mixed)
DNA 1: B1 DNA 1
DNA 2: B1 DNA 2
DNA 3: AGTCTGCGGCGCGAGCCTCGGACGTAGATAGTC
DNA 4: TACGTGGTCTGGCGTGGTGAATGTTCGTCGGCGTGCTC
binds: PriA Trp186Ala [6] | PriA Arg187Ala [7] | PriA triple variant [8] | PriA Tyr190Ala [9] | PriA wild-type [10]
